Data as given in patent US20230331823A1.

Experiments:
[1] = biological target: SARS-CoV-2 RBD (pCoV08, RBD-His6) (SARS-CoV-2 (Wuhan-Hu-1)) (UniProt P0DTC2); assay: BLI, RBD on probe, antibody, then hACE2 (blocked ligand)
[2] = biological target: SARS-CoV-2 stabilized Spike trimer (S-2P) (SARS-CoV-2) (UniProt P0DTC2)

Substance: CR3022 (antibody)
- EC50 (read off the curve) [1]: 10 µg/mL
- EC50 (read off the curve) [2]: 30 µg/mL
